Test results reported in the supplement of paper PMC10065799, “High-throughput profiling of sequence recognition by tyrosine kinases and SH2 domains using bacterial peptide display” (eLife, 2023).

Experiments:
Fes = Fes (UniProt P07332); experiment: phosphorylation enrichment, bacterial display (enrichment ratio); higher = better substrate or ligand; peptides without Tyr show the background
Jak2 = Jak2 (UniProt O60674); experiment: as above
Hck = Hck (UniProt P08631); experiment: as above
AncSZ = experiment: as above
MERTK = MERTK (UniProt Q12866); experiment: as above
Fyn = Fyn (UniProt P06241); experiment: as above
c-Abl (mouse) = experiment: as above
EPHB1 = EPHB1 (UniProt P54762); experiment: as above
FGFR1 = FGFR1 (UniProt P11362); experiment: as above
EPHB2 = EPHB2 (UniProt P29323); experiment: as above
Fer (mouse) = experiment: as above
c-Src = experiment: as above
FGFR3 = FGFR3 (UniProt P22607); experiment: as above
Grb2 SH2 = Grb2 SH2 (UniProt P62993); experiment: SH2 binding enrichment of the phosphorylated peptide, bacterial display (enrichment ratio); higher = better substrate or ligand; peptides without Tyr show the background
c-Src SH2 = experiment: as above
SHP2-C SH2 = experiment: as above
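Wherever SH2 binding enrichment of the phosphorylated peptide, bacterial display is given: peptide library displayed on the E. coli surface as eCPX fusions, selected cells deep-sequenced, score is each peptide's frequency after selection divided by its frequency in the input.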
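Wherever phosphorylation enrichment, bacterial display is given: 11-residue human phosphosite peptides and single-mutation variants displayed on the E. coli surface, counted by deep sequencing, each peptide's frequency after selection divided by its frequency in the unselected input library; frequency after pTyr selection over input frequency; kinase dosed for 20-30% of maximal phosphorylation in three min.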

Sequence of MERTK (Q12866 whole entry, looked up): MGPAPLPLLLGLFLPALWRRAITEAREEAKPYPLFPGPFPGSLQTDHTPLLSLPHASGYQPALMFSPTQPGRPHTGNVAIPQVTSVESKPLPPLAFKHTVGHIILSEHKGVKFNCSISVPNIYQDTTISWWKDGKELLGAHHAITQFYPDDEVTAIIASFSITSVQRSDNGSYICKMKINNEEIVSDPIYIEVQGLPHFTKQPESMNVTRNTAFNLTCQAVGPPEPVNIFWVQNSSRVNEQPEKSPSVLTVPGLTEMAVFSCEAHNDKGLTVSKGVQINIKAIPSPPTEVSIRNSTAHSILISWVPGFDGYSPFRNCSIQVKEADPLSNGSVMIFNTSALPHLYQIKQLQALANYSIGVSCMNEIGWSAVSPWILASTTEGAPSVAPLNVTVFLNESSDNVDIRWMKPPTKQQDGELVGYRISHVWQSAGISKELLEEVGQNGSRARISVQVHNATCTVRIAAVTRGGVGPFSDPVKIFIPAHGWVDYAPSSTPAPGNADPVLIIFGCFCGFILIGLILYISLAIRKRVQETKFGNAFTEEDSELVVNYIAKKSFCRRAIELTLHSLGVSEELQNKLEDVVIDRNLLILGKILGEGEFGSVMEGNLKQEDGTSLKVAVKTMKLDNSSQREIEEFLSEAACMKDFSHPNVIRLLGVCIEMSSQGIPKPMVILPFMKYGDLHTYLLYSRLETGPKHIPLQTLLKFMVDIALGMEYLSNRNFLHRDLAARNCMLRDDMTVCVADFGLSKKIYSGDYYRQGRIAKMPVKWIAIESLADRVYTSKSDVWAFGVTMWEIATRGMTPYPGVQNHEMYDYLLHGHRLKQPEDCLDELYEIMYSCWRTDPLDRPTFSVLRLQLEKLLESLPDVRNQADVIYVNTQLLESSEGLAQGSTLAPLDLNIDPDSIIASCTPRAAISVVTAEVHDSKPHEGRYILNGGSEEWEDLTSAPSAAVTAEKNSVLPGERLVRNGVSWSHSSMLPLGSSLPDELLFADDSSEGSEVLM
Sequence of Fyn (P06241 whole entry, looked up): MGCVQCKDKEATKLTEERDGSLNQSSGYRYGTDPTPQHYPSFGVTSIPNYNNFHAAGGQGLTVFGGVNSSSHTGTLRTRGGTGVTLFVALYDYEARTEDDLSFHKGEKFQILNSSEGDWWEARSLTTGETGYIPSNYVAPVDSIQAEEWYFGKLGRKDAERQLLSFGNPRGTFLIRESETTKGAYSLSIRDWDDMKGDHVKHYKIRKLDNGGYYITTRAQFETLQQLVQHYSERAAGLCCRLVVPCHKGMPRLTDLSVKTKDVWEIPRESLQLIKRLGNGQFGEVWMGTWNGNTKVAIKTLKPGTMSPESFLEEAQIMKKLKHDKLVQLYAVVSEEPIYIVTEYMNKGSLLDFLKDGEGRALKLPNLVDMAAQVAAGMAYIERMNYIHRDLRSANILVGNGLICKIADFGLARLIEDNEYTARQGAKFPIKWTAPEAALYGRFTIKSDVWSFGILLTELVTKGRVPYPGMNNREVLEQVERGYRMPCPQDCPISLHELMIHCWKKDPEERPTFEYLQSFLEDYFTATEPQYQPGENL
Sequence of Fes (P07332 whole entry, looked up): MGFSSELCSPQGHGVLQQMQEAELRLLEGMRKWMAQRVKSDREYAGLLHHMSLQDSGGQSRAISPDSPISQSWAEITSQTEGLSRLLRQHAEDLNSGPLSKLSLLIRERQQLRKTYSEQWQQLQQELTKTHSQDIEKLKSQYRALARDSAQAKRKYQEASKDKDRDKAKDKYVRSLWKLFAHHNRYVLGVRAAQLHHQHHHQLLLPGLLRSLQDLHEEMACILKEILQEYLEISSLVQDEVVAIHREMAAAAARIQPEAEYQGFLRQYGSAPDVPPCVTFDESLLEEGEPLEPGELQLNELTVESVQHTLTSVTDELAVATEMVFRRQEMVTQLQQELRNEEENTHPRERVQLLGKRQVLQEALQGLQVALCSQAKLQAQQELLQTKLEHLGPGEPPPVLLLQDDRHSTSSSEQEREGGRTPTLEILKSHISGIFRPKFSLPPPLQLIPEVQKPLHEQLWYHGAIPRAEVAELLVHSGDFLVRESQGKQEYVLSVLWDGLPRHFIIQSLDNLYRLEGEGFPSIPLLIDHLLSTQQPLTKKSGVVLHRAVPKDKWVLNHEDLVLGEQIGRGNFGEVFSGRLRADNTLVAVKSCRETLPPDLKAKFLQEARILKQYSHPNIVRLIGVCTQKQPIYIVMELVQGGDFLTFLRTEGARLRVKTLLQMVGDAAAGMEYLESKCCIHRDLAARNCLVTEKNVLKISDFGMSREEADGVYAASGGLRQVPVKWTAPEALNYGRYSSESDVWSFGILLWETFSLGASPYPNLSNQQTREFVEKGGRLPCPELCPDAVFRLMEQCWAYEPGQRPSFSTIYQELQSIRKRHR
Sequence of FGFR3 (P22607 whole entry, looked up): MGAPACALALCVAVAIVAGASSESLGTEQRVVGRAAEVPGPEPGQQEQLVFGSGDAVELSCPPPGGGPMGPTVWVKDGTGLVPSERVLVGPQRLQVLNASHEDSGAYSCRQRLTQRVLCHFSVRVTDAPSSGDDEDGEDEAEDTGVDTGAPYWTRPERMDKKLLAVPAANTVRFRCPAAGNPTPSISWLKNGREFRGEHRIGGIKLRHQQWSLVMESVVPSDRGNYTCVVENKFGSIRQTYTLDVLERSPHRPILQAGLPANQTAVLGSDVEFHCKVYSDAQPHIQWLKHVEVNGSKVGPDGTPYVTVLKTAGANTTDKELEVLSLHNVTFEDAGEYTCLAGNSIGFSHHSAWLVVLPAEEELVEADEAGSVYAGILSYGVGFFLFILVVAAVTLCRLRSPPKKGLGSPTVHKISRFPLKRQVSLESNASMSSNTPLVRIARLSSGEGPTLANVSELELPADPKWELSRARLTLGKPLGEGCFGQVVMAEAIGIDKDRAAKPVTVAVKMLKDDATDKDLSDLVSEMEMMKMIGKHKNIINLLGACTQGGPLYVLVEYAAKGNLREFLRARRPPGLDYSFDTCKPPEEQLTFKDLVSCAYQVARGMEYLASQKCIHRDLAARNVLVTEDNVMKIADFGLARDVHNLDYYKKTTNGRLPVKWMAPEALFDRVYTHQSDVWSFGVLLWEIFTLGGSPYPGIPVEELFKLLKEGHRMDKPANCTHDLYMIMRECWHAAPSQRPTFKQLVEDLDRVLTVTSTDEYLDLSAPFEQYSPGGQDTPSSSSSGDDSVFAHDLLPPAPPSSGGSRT
Sequence of FGFR1 (P11362 whole entry, looked up): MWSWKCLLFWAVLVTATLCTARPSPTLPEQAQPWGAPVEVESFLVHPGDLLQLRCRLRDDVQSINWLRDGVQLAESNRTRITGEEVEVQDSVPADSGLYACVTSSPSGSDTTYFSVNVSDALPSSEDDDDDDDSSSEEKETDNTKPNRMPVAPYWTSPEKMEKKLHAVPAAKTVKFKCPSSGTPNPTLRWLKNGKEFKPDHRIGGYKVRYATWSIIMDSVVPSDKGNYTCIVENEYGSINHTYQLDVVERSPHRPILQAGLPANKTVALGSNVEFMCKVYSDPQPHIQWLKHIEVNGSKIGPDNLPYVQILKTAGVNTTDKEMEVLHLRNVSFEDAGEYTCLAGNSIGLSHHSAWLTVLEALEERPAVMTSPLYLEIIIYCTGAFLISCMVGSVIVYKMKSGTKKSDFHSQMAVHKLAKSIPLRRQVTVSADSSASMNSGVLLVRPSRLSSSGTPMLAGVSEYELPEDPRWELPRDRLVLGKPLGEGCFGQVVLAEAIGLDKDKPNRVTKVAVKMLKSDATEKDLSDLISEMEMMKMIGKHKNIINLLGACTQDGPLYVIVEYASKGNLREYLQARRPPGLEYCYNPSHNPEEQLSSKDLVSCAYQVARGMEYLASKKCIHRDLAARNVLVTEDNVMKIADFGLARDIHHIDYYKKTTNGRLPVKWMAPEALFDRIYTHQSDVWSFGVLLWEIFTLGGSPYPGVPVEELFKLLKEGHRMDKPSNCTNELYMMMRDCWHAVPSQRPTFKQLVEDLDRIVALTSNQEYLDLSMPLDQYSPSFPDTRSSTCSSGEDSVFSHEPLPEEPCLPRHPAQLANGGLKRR
Sequence of Hck (P08631 whole entry, looked up): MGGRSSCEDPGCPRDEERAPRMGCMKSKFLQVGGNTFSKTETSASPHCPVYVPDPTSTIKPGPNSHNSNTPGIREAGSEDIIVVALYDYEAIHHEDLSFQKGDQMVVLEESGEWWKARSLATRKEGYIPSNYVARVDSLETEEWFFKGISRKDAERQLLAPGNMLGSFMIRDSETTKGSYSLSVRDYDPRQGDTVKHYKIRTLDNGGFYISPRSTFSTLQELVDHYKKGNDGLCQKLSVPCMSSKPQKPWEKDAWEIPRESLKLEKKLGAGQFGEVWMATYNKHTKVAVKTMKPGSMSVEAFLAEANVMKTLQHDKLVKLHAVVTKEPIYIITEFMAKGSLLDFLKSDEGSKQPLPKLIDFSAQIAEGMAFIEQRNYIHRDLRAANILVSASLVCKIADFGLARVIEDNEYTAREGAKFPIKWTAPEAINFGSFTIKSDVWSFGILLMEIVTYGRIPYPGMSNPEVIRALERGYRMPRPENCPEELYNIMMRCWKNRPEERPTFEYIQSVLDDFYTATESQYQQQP
Sequence of Grb2 SH2 (P62993 whole entry, looked up): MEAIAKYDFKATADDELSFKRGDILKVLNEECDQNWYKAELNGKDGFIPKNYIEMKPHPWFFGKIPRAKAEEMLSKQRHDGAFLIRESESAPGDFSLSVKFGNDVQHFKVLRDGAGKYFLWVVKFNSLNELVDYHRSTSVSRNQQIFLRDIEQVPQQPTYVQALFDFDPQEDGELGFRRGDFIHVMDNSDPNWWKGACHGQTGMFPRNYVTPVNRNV

Sequence	phosphorylation enrichment (Fes)	phosphorylation enrichment (Jak2)	phosphorylation enrichment (Hck)	phosphorylation enrichment (AncSZ)	phosphorylation enrichment (MERTK)	phosphorylation enrichment (Fyn)	phosphorylation enrichment (c-Abl (mouse))	phosphorylation enrichment (EPHB1)	phosphorylation enrichment (FGFR1)	phosphorylation enrichment (EPHB2)	phosphorylation enrichment (Fer (mouse))	phosphorylation enrichment (c-Src)	phosphorylation enrichment (FGFR3)	SH2 binding enrichment (Grb2 SH2)	SH2 binding enrichment (c-Src SH2)	SH2 binding enrichment (SHP2-C SH2)
TFMKKYPKVFL [CNBD1_Y70_Q69K]	0.662	0.642	0.366	3.41	0.404	0.357	0.548	0.508	0.485	0.419	0.393	0.447	0.419	1.12	1.17	1.52
AAGGRYFGLVG [HARS1_Y363_D364Y_YF]	0.764	0.575	0.354	0.516	0.395	0.396	0.626	0.312	0.375	0.377	0.389	0.461	0.471	1.06	0.608	0.828
MFNPCYGLFEF [NEDD4L_Y680_Y679C_YF]	1.27	1.07	2.27	1.33	2.85	4.92	0.917	0.633	0.578	0.65	4.76	4.79	0.766	0.929	0.67	0.558
RHNEIYEIKVD [LGR5_Y387]	1.18	1.86	6.57	1.12	0.616	8.54	0.768	0.312	0.724	0.671	0.915	8.99	1.02	1.09	0.479	0.629
KSIEEYLKLVG [RASAL2_Y381]	0.962	0.775	0.51	0.772	0.372	0.404	0.521	0.468	0.528	0.581	0.409	0.438	0.48	0.673	0.441	1.03
DGMADYSDPSF [CDC5L_Y459_YF]	1.2	1.12	0.63	1.92	0.5	0.488	1.04	1.72	0.911	3.21	0.592	0.501	1	0.781	0.557	0.662
VGQRPYQPLPE [REEP3_Y170]	0.649	0.505	0.36	0.617	0.406	0.375	0.547	0.38	0.47	0.424	0.336	0.393	0.525	1.01	0.534	0.798
VASSLYDILAR [GLB1_Y294]	1.05	1.24	8.2	1.02	8.38	1.77	0.763	1.16	0.37	1.01	1.96	2.84	0.557	0.567	0.78	0.67
GRTNIYKNKKD [SLC26A3_Y520]	0.648	0.66	0.447	0.467	0.43	0.308	0.721	0.415	0.369	0.393	0.349	0.434	0.475	1.07	0.802	0.832
QADVTYVNTQL [MERTK_Y872_I871T]	0.942	0.703	0.518	1.11	0.522	0.518	1.11	0.717	0.504	0.584	0.714	0.682	0.606	14.4	0.964	0.84
NESVDYRATFP [MET_Y1003]	0.802	0.749	0.484	0.681	0.422	0.472	0.591	0.421	0.427	0.463	0.454	0.418	0.489	0.748	0.433	0.693
HFMKLYEEKTG [PARP1_Y618]	0.663	0.592	0.519	0.862	0.438	0.282	0.355	0.482	0.464	0.46	0.277	0.425	1.08	0.766	0.433	0.962
ICTVDYLLRLQ [RYR1_Y3921]	1.41	1.12	0.542	1.21	0.428	0.539	0.966	0.659	0.529	0.618	0.736	0.444	0.733	0.852	0.459	0.813
DPYHVYIKNHV [KCNE3_Y95_R99H]	0.826	0.798	0.705	0.845	0.399	0.981	0.685	0.467	0.447	0.459	0.45	2.34	0.533	0.804	0.939	0.779
FASVEYQEALS [GALNS_Y461_A459V]	0.997	0.876	0.471	1.01	0.416	0.615	0.738	0.621	0.484	0.588	0.47	0.442	0.631	0.917	0.576	0.723
VTGWGYRKLRD [F11_Y521]	0.703	0.655	0.42	0.792	0.51	0.463	0.477	0.364	0.392	0.517	0.385	0.479	0.419	0.798	0.505	0.472
GGTPLYRDRQG [AGXT_Y194_M195R]	0.499	0.4	0.398	0.652	0.364	0.378	0.5	0.383	0.44	0.435	0.415	0.358	0.423	0.87	0.389	0.78
